What was measured:
[1] = molecular target: Trypanosoma cruzi phosphofructokinase (T. cruzi (strain CL Brener)); test: SEC; preparative gel filtration of IMAC eluate on HiPrep Sephacryl S-200 16/60; 20 mM TEA, 5 mM MgCl2, 50 mM KCl, 10% glycerol, pH 7.4; tetrameric fractions collected
[2] = molecular target: the molecule itself; test: SEC; preparative size exclusion of IMAC eluate on Superose 6 10/300; 50 mM TEA, 500 mM KCl, 5 mM MgCl2, 1 mM TCEP, 1 mM ATP/F6P, 10% glycerol, pH 8; fractions corresponding to the tetramer (340 kDa) pooled
[3] = molecular target: the molecule itself; test: SEC; preparative gel filtration of IMAC eluate on HiPrep Sephacryl S-200 16/60; 20 mM TEA, 5 mM MgCl2, 50 mM KCl, 10% glycerol, pH 7.4; tetrameric fractions collected
[4] = molecular target: the molecule itself; test: SEC; preparative size exclusion of IMAC eluate on HiPrep Sephacryl S300 16/600; 50 mM TEA, 500 mM KCl, 5 mM MgCl2, 1 mM TCEP, 1 mM ATP/F6P, 10% glycerol, pH 7.4; fractions corresponding to the tetramer (340 kDa) pooled

## Trypanosoma cruzi phosphofructokinase (enzyme)
[1]
  stoichiometry N: 4

B1: human phosphofructokinase isoform PFK-L (enzyme, UniProt P17858 1-780, looked up)
chain: MAAVDLEKLRASGAGKAIGVLTSGGDAQGMNAAVRAVTRMGIYVGAKVFLIYEGYEGLVEGGENIKQANWLSVSNIIQLGGTIIGSARCKAFTTREGRRAAAYNLVQHGITNLCVIGGDGSLTGANIFRSEWGSLLEELVAEGKISETTARTYSHLNIAGLVGSIDNDFCGTDMTIGTDSALHRIMEVIDAITTTAQSHQRTFVLEVMGRHCGYLALVSALASGADWLFIPEAPPEDGWENFMCERLGETRSRGSRLNIIIIAEGAIDRNGKPISSSYVKDLVVQRLGFDTRVTVLGHVQRGGTPSAFDRILSSKMGMEAVMALLEATPDTPACVVTLSGNQSVRLPLMECVQMTKEVQKAMDDKRFDEATQLRGGSFENNWNIYKLLAHQKPPKEKSNFSLAILNVGAPAAGMNAAVRSAVRTGISHGHTVYVVHDGFEGLAKGQVQEVGWHDVAGWLGRGGSMLGTKRTLPKGQLESIVENIRIYGIHALLVVGGFEAYEGVLQLVEARGRYEELCIVMCVIPATISNNVPGTDFSLGSDTAVNAAMESCDRIKQSASGTKRRVFIVETMGGYCGYLATVTGIAVGADAAYVFEDPFNIHDLKVNVEHMTEKMKTDIQRGLVLRNEKCHDYYTTEFLYNLYSSEGKGVFDCRTNVLGHLQQGGAPTPFDRNYGTKLGVKAMLWLSEKLREVYRKGRVFANAPDSACVIGLKKKAVAFSPVTELKKDTDFEHRMPREQWWLSLRLMLKMLAQYRISMAAYVSGELEHVTRRTLSMDKGF
notes: human ATP-dependent phosphofructokinase, liver type (PFK-L1), yeast codon optimised cDNA; also called PFK-L1; source: PFK-deficient Saccharomyces cerevisiae, plasmid pJJH71, purified (nickel IMAC, Superose 6 size exclusion)
[2]
  stoichiometry N: 4

B2: Trypanosoma brucei phosphofructokinase (enzyme, T. b. brucei (strain Lister 427), UniProt O15648 1-487, looked up)
chain: MAVESRSRVTSKLVKAHRAMLNSVTQEDLKVDRLPGADYPNPSKKYSSRTEFRDKTDYIMYNPRPRDEPSSENPVSVSPLLCELAAARSRIHFNPTETTIGIVTCGGICPGLNDVIRSITLTGINVYNVKRVIGFRFGYWGLSKKGSQTAIELHRGRVTNIHHYGGTILGSSRGPQDPKEMVDTLERLGVNILFTVGGDGTQRGALVISQEAKRRGVDISVFGVPKTIDNDLSFSHRTFGFQTAVEKAVQAIRAAYAEAVSANYGVGVVKLMGRDSGFIAAQAAVASAQANICLVPENPISEQEVMSLLERRFCHSRSCVIIVAEGFGQDWGRGSGGYDASGNKKLIDIGVILTEKVKAFLKANKSRYPDSTVKYIDPSYMIRACPPSANDALFCATLATLAVHEAMAGATGCIIAMRHNNYILVPIKVATSVRRVLDLRGQLWRQVREITVDLGSDVRLARKLEIRRELEAINRNRDRLHEELAKL
notes: ATP-dependent phosphofructokinase of Trypanosoma brucei brucei, DNA source strain Lister 427, codon optimised for E. coli; Tag removal was only partially successful; the tagged protein was used for all experiments; also called TbPFK; T. brucei PFK; source: E. coli C41 (DE3), pET28a, purified (cobalt IMAC, Sephacryl S-200 gel filtration); not shown: His6, N-terminal, kept
[3]
  stoichiometry N: 4

B3: human phosphofructokinase isoform PFK-M (enzyme, UniProt P08237 1-780, looked up)
chain: MTHEEHHAAKTLGIGKAIAVLTSGGDAQGMNAAVRAVVRVGIFTGARVFFVHEGYQGLVDGGDHIKEATWESVSMMLQLGGTVIGSARCKDFREREGRLRAAYNLVKRGITNLCVIGGDGSLTGADTFRSEWSDLLSDLQKAGKITDEEATKSSYLNIVGLVGSIDNDFCGTDMTIGTDSALHRIMEIVDAITTTAQSHQRTFVLEVMGRHCGYLALVTSLSCGADWVFIPECPPDDDWEEHLCRRLSETRTRGSRLNIIIVAEGAIDKNGKPITSEDIKNLVVKRLGYDTRVTVLGHVQRGGTPSAFDRILGSRMGVEAVMALLEGTPDTPACVVSLSGNQAVRLPLMECVQVTKDVTKAMDEKKFDEALKLRGRSFMNNWEVYKLLAHVRPPVSKSGSHTVAVMNVGAPAAGMNAAVRSTVRIGLIQGNRVLVVHDGFEGLAKGQIEEAGWSYVGGWTGQGGSKLGTKRTLPKKSFEQISANITKFNIQGLVIIGGFEAYTGGLELMEGRKQFDELCIPFVVIPATVSNNVPGSDFSVGADTALNTICTTCDRIKQSAAGTKRRVFIIETMGGYCGYLATMAGLAAGADAAYIFEEPFTIRDLQANVEHLVQKMKTTVKRGLVLRNEKCNENYTTDFIFNLYSEEGKGIFDSRKNVLGHMQQGGSPTPFDRNFATKMGAKAMNWMSGKIKESYRNGRIFANTPDSGCVLGMRKRALVFQPVAELKDQTDFEHRIPKEQWWLKLRPILKILAKYEIDLDTSDHAHLEHITRKRSGEAAV
notes: human ATP-dependent phosphofructokinase, muscle type (PFK-M1), yeast codon optimised cDNA; also called PFK-M1; source: PFK-deficient Saccharomyces cerevisiae, plasmid pJJH71, purified (nickel IMAC, Sephacryl S300 size exclusion)
[4]
  stoichiometry N: 4

B4: human phosphofructokinase isoform PFK-P (enzyme, UniProt Q01813 1-784, looked up)
chain: MDADDSRAPKGSLRKFLEHLSGAGKAIGVLTSGGDAQGMNAAVRAVVRMGIYVGAKVYFIYEGYQGMVDGGSNIAEADWESVSSILQVGGTIIGSARCQAFRTREGRLKAACNLLQRGITNLCVIGGDGSLTGANLFRKEWSGLLEELARNGQIDKEAVQKYAYLNVVGMVGSIDNDFCGTDMTIGTDSALHRIIEVVDAIMTTAQSHQRTFVLEVMGRHCGYLALVSALACGADWVFLPESPPEEGWEEQMCVKLSENRARKKRLNIIIVAEGAIDTQNKPITSEKIKELVVTQLGYDTRVTILGHVQRGGTPSAFDRILASRMGVEAVIALLEATPDTPACVVSLNGNHAVRLPLMECVQMTQDVQKAMDERRFQDAVRLRGRSFAGNLNTYKRLAIKLPDDQIPKTNCNVAVINVGAPAAGMNAAVRSAVRVGIADGHRMLAIYDGFDGFAKGQIKEIGWTDVGGWTGQGGSILGTKRVLPGKYLEEIATQMRTHSINALLIIGGFEAYLGLLELSAAREKHEEFCVPMVMVPATVSNNVPGSDFSIGADTALNTITDTCDRIKQSASGTKRRVFIIETMGGYCGYLANMGGLAAGADAAYIFEEPFDIRDLQSNVEHLTEKMKTTIQRGLVLRNESCSENYTTDFIYQLYSEEGKGVFDCRKNVLGHMQQGGAPSPFDRNFGTKISARAMEWITAKLKEARGRGKKFTTDDSICVLGISKRNVIFQPVAELKKQTDFEHRIPKEQWWLKLRPLMKILAKYKASYDVSDSGQLEHVQPWSV
notes: human ATP-dependent phosphofructokinase, platelet type (PFK-P1), yeast codon optimised cDNA; also called PFK-P1; source: PFK-deficient Saccharomyces cerevisiae, plasmid pJJH71, purified (nickel IMAC, Superose 6 size exclusion)
[2]
  stoichiometry N: 4

Reference: PMC6340114, “The kinetic characteristics of human and trypanosomatid phosphofructokinases for the reverse reaction” (Biochemical Journal, 2018)
